Measurements: the supplement of paper PMC9170038

System: MS2 coat protein
Assay: apparent KD of MS2 coat protein; designed switch direction (-1 OFF switch, 1 ON switch): -1; higher = weaker reporter binding
Procedure, shortened: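 Normalised cluster fluorescence was curve-fitted, and each design's median over clusters is its apparent KD. Before this, SNAP-549-labelled MS2 coat protein was titrated from 0.7 or 1.5 nM, doubling to 3 µM, over RNA switches transcribed on Illumina chips by stalled E. coli RNA polymerase. Titrations had no input, 200 uM small-molecule ligand, or an oligonucleotide input, and steps lasted 0.8–1.5 h (lowest) to 10–20 min (highest).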

[1] = input ligand: microRNA oligo, concentration not stated
[2] = Eterna round: R95, input ligand: FMN 200 uM
[3] = Eterna round: R95, input ligand: microRNA oligo, concentration not stated
[4] = Eterna round: R95, input ligand: none

Sequence	apparent KD of MS2 coat protein (input ligand: FMN 200 uM) [nM]	apparent KD of MS2 coat protein (input ligand: none) [nM]	apparent KD of MS2 coat protein [3] [nM]	also measured
CGAUGCUCGUGUCCACAUGAGGAUCACCCAUGUCGAGUUAGCGAGGAUAUCGGUAGCACAUAGCACGAGAAGGCGCGAACCUGA [Ex NG3 #28] (Eterna round: R96, puzzle: Exclusion NG 3)	58.4	22		apparent KD of MS2 coat protein [1]: 15.9 nM
ACCUCACAUGAGGAUCACCCAUGUCAGGAUAUACAAGAAAAUAACCGGAAAGACCGGAGUAGAAGGGACAUAAG [Arisus] (puzzle: Exclusion 1)			16.2	apparent KD of MS2 coat protein [2]: 30.3 nM; apparent KD of MS2 coat protein [4]: 17.1 nM
GGAAAACAUGAGGAUCACCCAUGUAAGGAUAUGCAAAAGGAUAUAGAAGGAAUAAAAAGCAGAAGGUACAAAGG [salish99-ex1_r3_096] (puzzle: Exclusion 1)			45.7	apparent KD of MS2 coat protein [2]: 116 nM; apparent KD of MS2 coat protein [4]: 66.6 nM
ACAAGCUUUUGCUCGUCUUACAUGAGGAUCACCCAUGUCGGAUGAUCGCUUGCGUCCGGCGUCUGAGCCGUGACGGU [Sensor, turn off variant MOD of sellena. cleaned up dot.] (Eterna round: R97, puzzle: Sensor, turn-off variant 1)	15.3	15		
UUUUUACAUGAGGAUCACCCAUGUCAGGAUAUCCUUAUAUUUUAUUAUUUUAUUUUUUGGAGAAGGGACUAUUA [My solution] (puzzle: Exclusion 1)			297	
CGGUACUGAGGAUAUACAUGAGGAUCACCCAUGUGUUCUAGCUAGCGUACUGGCUAUUGUAGAAGGCGGUGCUG [JL-ex3-3.24 Brourd mod] (puzzle: Exclusion 3)			17.5	
UUUUAACAUGAGGAUCACCCAUGUCAGGAUAUGGUUUUUUUUUUUUUUUUUUUUUUUUCCAGAAGGGACAUUUU [My solution] (puzzle: Exclusion 1)			5.77	apparent KD of MS2 coat protein [2]: 42.5 nM; apparent KD of MS2 coat protein [4]: 3.88 nM
UCGCUCCGUGUAGGAUAUCGCCGUACCACUCGGCGAGAAGGACAUGAGGAUCACCCAUGUAUGUUAUUAUCACGUGUGGCGCGC [Design 52] (Eterna round: R96, puzzle: Exclusion NG 1)	33.5	18.7		apparent KD of MS2 coat protein [1]: 19 nM
GUUUCGUGAGGAUAUGUGGCUUCGAUCGUGCGAAGAAGGCUACAGAAGGCACAUGAGGAUCACCCAUGUUCGUC [salish99_ex4_r4_227] (Eterna round: R97, puzzle: Exclusion 4)	152	42.1		
GGGUGACAUGAGGAUCACCCAUGUCAGGAUAUGAUACUAUGUACUUCGGUACAUAGUAUCAGAAGGGACAUAAA [Ex1-3: 15] (puzzle: Exclusion 1)			103	
GUAAAGUGAGGAUAUGGUAAAGUAAGUAUUUAGUAAGUAAUCCAGAAGGCACAUGAGGAUCACCCAUGUAAAUG [Mat - Exclusion 4 - D98] (puzzle: Exclusion 4)			29.2	
CCUCCACAUGAGGAUCACCCAUGUCAGGAUAUCGUGUGCGCGUUUUCGGUCUUUCGUGCGAGAAGGGACGUCUG (puzzle: Exclusion 1)			32.6	
CCAGGCAGUGUGAGGAUAUCGUGGUCCUUGGAUCACGAGAAGGCACAUGAGGAUCACCCAUGUGAAUAGCUUGG [Mat - Exclusion 4 - JL Mod - D100] (puzzle: Brourd's mod of Exclusion 4)			21.9	
AACAAUAAGGAGGAUAUCGUAUCGGAAACGAUACGAGAAGGCUUAACAUGAGGAUCACCCAUGUUCUUCAAUAA [Fiskers Ex 6 - 24] (puzzle: Exclusion 6)			17.1	apparent KD of MS2 coat protein [2]: 19.1 nM; apparent KD of MS2 coat protein [4]: 17.7 nM
GUGAAACAUGAGGAUCACCCAUGUGAGGAUAUGUUUUAGUACUGCUGACAGUACAUCUAUAGAAGGCACAAUGG [JL-ex1-02] (puzzle: Exclusion 1)			33.7	
UAACAAGCUUAAAGAUCCUACAUGAGGAUCACCCAUGUGCUCGUCUUAUAACGUACUGUGACGAAAGUCACGGUACG [JL TOV1 3.14] (Eterna round: R97, puzzle: Sensor, turn-off variant 1)	348	395		
CCCACAAGCUUUUUGCUCGACAUGAGGAUCACCCAUGUAAAAUGGGUAAAUUUAAAUUUAAAUUUAUUUAAAUUGGG [-18.1, -41.9 kcal, A 34%] (Eterna round: R97, puzzle: Sensor, turn-off variant 1)	80.9	102		
GAGAAACAUGAGGAUCACCCAUGUGAGGAUAUGAGCACGCCGGUGACGGUGAUAAGAAUCAGAAGGCACAAAGG [Mat - Exclusion 1 - JL Mod - D33] (Eterna round: R97, puzzle: Exclusion 1)	422	67.6		
AGUAACAGAGGAUAUACUAUUUUAUGUGUUUGUUAUUUUAAACAUGAGGAUCACCCAUGUAGAAGGCUGAAUAA [JMF 84] (puzzle: Exclusion 2)			21	
GAGUAGGGAGGAUAUACGUGCUCAAUCCCGGAAAGCGGGAAACAUGAGGAUCACCCAUGUAGAAGGCCCAUAAA [Riisen] (puzzle: Exclusion 2)			68.4	
GUAAUUAUAUAGGAUAUCGAAUUUAUUAUUUAACGAGAAGGAUGAACAUGAGGAUCACCCAUGUGGUAUCAUGG [JL-ex6-3.04] (puzzle: Exclusion 6)			139	apparent KD of MS2 coat protein [2]: 145 nM; apparent KD of MS2 coat protein [4]: 165 nM
CUAUUGUGAGGAUAUCAGUAGUAAUACAAUAGUAUUACUACUGAGAAGGCACAUGAGGAUCACCCAUGUUCCUU [Mat - Exclusion 4 - Mod of Omei - D76] (puzzle: Exclusion 4)			14.4	
CCCGUCGAUGUAGGAUAUGCCCGGGUCUCCCGGGCAGAAGGACAUGAGGAUCACCCAUGUUCAUGAGGGUCGCCCAUGAAUGGG [Double but mutated MS2] (Eterna round: R96, puzzle: Exclusion NG 1)	88.8	21.2		apparent KD of MS2 coat protein [1]: 17 nM
UUUAAUUUUUUUUUUUUACAAGCUUUUUGCUCGUCUUAUACAUGAGGAUCACCCAUGUGGGUAAAGGAUAAAUUAUC [JMF 25] (puzzle: Sensor v3, turn-off variant 2)			39.1	apparent KD of MS2 coat protein [2]: 31.6 nM; apparent KD of MS2 coat protein [4]: 34.1 nM
UUGGUGUCAGGAUAUGCUUAAUGUGUUUUAUUAUAAUAUAUACAUGAGGAUCACCCAUGUAGAAGGGACAUUGU [LRO-Excl2-09-Fireball XL5] (Eterna round: R97, puzzle: Exclusion 2)	48	48.5		
GUACUGAAGCUUUGCUUUAGUCGUACAUGAGGAUCACCCAUGUAGGAUAUGGUAAGCAUAGCUUACUAGAAGGAUAGAGUGAUC [Mat - Exclusion NG 3 - Mod of JL - D65] (Eterna round: R96, puzzle: Exclusion NG 3)	169	97.8		apparent KD of MS2 coat protein [1]: 56.6 nM
ACAAGCUUUUUGUUCGUCUUAUACACUCCUAAGAGGACAACAUGAGGAUCACCCAUGUAACAAAGACGGACUCAUGU [Sesor Array 11 - Jieux - Sensor v3, turn-off variant 2] (puzzle: Sensor v3, turn-off variant 2)			129	apparent KD of MS2 coat protein [2]: 17.7 nM; apparent KD of MS2 coat protein [4]: 12 nM
